Changes are numbered by the printed parent chain.
B1: anti-Sortilin antibody S-55 (antibody, V domains shown)
VH: QVQLQESGPGLVKPSETLSLTCAVSGYSISSGYYWGWIRQPPGKGLEWIGSIYHSGSTYYNPSLKSRVTISVDTSKNQFSLKLSSVTAADTAVYYCARGRPELGWDKYFQHWGQGTLVTVSS
VL: DIQMTQSPSSVSASVGDRVTITCRASQGISRWLAWYQQKPGKAPKLLIYAASSLQSGVPSRFSGSGSGTDFTLTISSLQPEDFATYYCQQANALPTFGGGTKVEIK
notes: IgG
B2: anti-Sortilin antibody S-64 (antibody, V domains shown)
VH: QVQLQESGPGLVKPSETLSLTCAVSGYSISSGYYWGWIRQPPGKGLEWIGSIYHSGSTYYNPSLKSRVTISVDTSKNQFSLKLSSVTAADTAVYYCARAEHRGPRYFDLWGRGTLVTVSS
VL: DIQMTQSPSSLSASVGDRVTITCRASQSINSYLNWYQQKPGKAPKLLIYAASSLQSGVPSRFSGSGSGTDFTLTISSLQPEDFATYYCQQLDSTPITFGGGTKVEIK
B3: anti-Sortilin antibody S-64 (antibody, V domains shown)
VH: B2 VH
VL: B2 VL
notes: IgG
B4: anti-Sortilin antibody S-65 (antibody, V domains shown)
VH: B2 VH with A99E, E100G, H101Q, R102L, G103P, P104T, R105G, Y106T, L109Y, R112Q
VL: not shown
B5: anti-Sortilin antibody S-2 (antibody, V domains shown)
VH: not shown
VL: B2 VL with N30S, L91S, S93V, T94S
notes: IgG
B6: anti-Sortilin antibody S-14 (antibody, V domains shown)
VH: QVQLVQSGAEVKKPGASVKVSCKASGYTFTSYYMSWVRQAPGQGLEWMGIINPSGGSTSYAQKFQGRVTMTRDTSTSTVYMELSSLRSEDTAVYYCARDPSGIAAAGPASRYYYGMDVWGQGTTVTVSS
VL: B2 VL with N30S, A50G, L91H, D92Y, S93V, T94G, I96F
notes: IgG
B7: anti-Sortilin antibody S-16 (antibody, V domains shown)
VH: QVQLVQSGAEVKKPGSSVKVSCKASGGTFSSYAISWVRQAPGQGLEWMGGIIPIFGTANYAQKFQGRVTITADESTSTAYMELSSLRSEDTAVYYCARSPYSGTRDFDLWGRGTLVTVSS
VL: B2 VL with L11V, S28G, N30S, Y32W, N34A, S53N, L91G, D92N, T94Y
notes: IgG
B8: anti-Sortilin antibody S-76 (antibody, V domains shown)
VH: QVQLQESGPGLVKPSQTLSLTCTVSGGSISSGGYYWSWIRQHPGKGLEWIGSIYYSGSTYYNPSLKSRVTISVDTSKNQFSLKLSSVTAADTAVYYCARGVGIQQQLVLGFDPWGQGTLVTVSS
VL: B2 VL with N30S, Y32F, Y49S, L91S, D92Y, S93R, T94E
B9: anti-Sortilin antibody S-65 (antibody, V domains shown)
VH: B2 VH with A99E, E100G, H101Q, R102L, G103P, P104T, R105G, Y106T, L109Y, R112Q
VL: not shown
notes: IgG
B10: anti-Sortilin antibody S-74 (antibody, V domains shown)
VH: QVQLQESGPGLVKPSQTLSLTCTVSGGSISSGTYYWSWIRQHPGKGLEWIGYIYYSGSTYYNPSLKSRVTISVDTSKNQFSLKLSSVTAADTAVYYCARGVGRYRVADYWGQGTLVTVSS
VL: EIVMTQSPATLSLSPGERATLSCRASQSVSSYLAWYQQKPGQAPRLLIYDSSNRATGIPARFSGSGSGTDFTLTISSLEPEDFAVYYCQQETNMPPITFGGGTKVEIK
B11: anti-Sortilin antibody S-60 (antibody, V domains shown)
VH: QVQLQESGPGLVKPSETLSLTCAVSGYSISSGYYWGWIRQPPGKGLEWIGTIYHSGSTYYNPSLKSRVTISVDTSKNQFSLKLSSVTAADTAVYYCARQGSIKQGYYGMDVWGQGTTVTVSS
VL: not shown
B12: anti-Sortilin antibody S-12 (antibody, V domains shown)
VH: QVQLVQSGAEVKKPGASVKVSCKASGYTFTSYGISWVRQAPGQGLEWMGWISAYNGNTNYAQKLQGRVTMTTDTSTSTAYMELRSLRSDDTAVYYCARDLPKYKWGWFDPWGQGTLVTVSS
VL: not shown
B13: anti-Sortilin antibody S-12 (antibody, V domains shown)
VH: B12 VH
VL: not shown
notes: IgG
B14: anti-Sortilin antibody S-83 (antibody, V domains shown)
VH: QLQLQESGPGLVKPSETLSLTCTVSGGSISSSSYYWGWIRQPPGKGLEWIGSIYYSGSTYYNPSLKSRVTISVDTSKNQFSLKLSSVTAADTAVYYCARGSPTWLRDYYMDVWGKGTTVTVSS
VL: EIVLTQSPATLSVSPGERATLSCRASQSVSSNLAWYQQKPGQAPRLLIYGASTRATGIPARFSGSGSGTEFTLTISSLQSEDFAVYYCQQYNAFPPTFGGGTKVEIK
B15: anti-Sortilin antibody S-61 (antibody, V domains shown)
VH: QVQLQESGPGLVKPSETLSLTCAVSGYSISSGYYWGWIRQPPGKGLEWIGSIYHSGSTYYNPSLKSRVTISVDTSKNQFSLKLSSVTAADTAVYYCARGSPRFYYGSGSYLDLFDIWGQGTMVTVSS
VL: B14 VL with L4M, Q90E, N92L, A93N, F94Y, P96I
notes: IgG
B16: anti-Sortilin antibody S-15 (antibody, V domains shown)
VH: B6 VH
VL: B14 VL with L4M, Y91A, N92R, A93L, F94G, P96W
notes: IgG
B17: anti-Sortilin antibody S-69 (antibody, V domains shown)
VH: QVQLQESGPGLVKPSQTLSLTCTVSGGSISSGGYYWSWIRQHPGKGLEWIGYIYYSGSTYYNPSLKSRVTISVDTSKNQFSLKLSSVTAADTAVYYCARDRGGTHFGADHYYYGMDVWGQGTMVTVSS
VL: B14 VL with L4M, N32S, Y91A, N92A, A93D, F94W, P96I
B18: anti-Sortilin antibody S-48 (antibody, V domains shown)
VH: QVQLVESGGGVVQPGRSLRLSCAASGFTFSSYGMHWVRQAPGKGLEWVAVISYDGSNKYYADSVKGRFTISRDNSKNTLYLQMNSLRAEDTAVYYCARESGDRATLVYYYYYGMDVWGQGTTVTVSS
VL: B14 VL with L4M, G50S, A93S, F94W, P96I
notes: IgG
B19: anti-Sortilin antibody S-58 (antibody, V domains shown)
VH: QVQLQESGPGLVKPSETLSLTCAVSGYSISSGYYWGWIRQPPGKGLEWIGSIYHSGNTYYNPSLKSRVTISVDTSKNQFSLKLSSVTAADTAVYYCARGPPELGKMYFQHWGQGTLVTVSS
VL: B14 VL with Y91D, N92R, A93K, F94G, P96L
notes: IgG
B20: anti-Sortilin antibody S-9 (antibody, V domains shown)
VH: QVQLVQSGAEVKKPGASVKVSCKASGYTFTSYGISWVRQAPGQGLEWMGWISAYNGNTNYAQKLQGRVTMTTDTSTSTAYMELRSLRSDDTAVYYCARDPGGYGPTLYYYYGMDVWGQGTTVTVSS
VL: B14 VL with L4M, A93I, F94Y, P96L
notes: IgG
B21: anti-Sortilin antibody S-6 (antibody, V domains shown)
VH: not shown
VL: B14 VL with L4M, Y91V, N92A, A93N, F94Y, P96R
notes: IgG
B22: anti-Sortilin antibody S-4 (antibody, V domains shown)
VH: not shown
VL: B14 VL with L4M, Y91F, N92R, A93V, F94L
notes: IgG
B23: anti-Sortilin antibody S-40 (antibody, V domains shown)
VH: not shown
VL: EIVMTQSPATLSLSPGERATLSCRASQSVSSYLAWYQQKPGQAPRLLIYDASNRATGIPARFSGSGSGTDFTLTISSLEPEDFAVYYCQQRSALPFTFGGGTKVEIK
notes: IgG
B24: anti-Sortilin antibody S-51 (antibody, V domains shown)
VH: QVQLVESGGGVVQPGRSLRLSCAASGFTFSSYGMHWVRQAPGKGLEWVAVISYDGSNKYYADSVKGRFTISRDNSKNTLYLQMNSLRAEDTAVYYCAKGLEYYDSSRLYYPYYYYMDVWGKGTTVTVSS
VL: B23 VL with M4L, N53K, A93N, L94Y, F96I
notes: IgG
B25: anti-Sortilin antibody S-10 (antibody, V domains shown)
VH: B20 VH
VL: EIVMTQSPATLSVSPGERATLSCRASQSVSSNLAWYQQKPGQAPRLLIYGASTRATGIPARFSGSGSGTEFTLTISSLQSEDFAVYYCQQYADWPPITFGGGTKVEIK
notes: IgG

How the values were obtained:
[1] = biological target: T1, recombinant human Sortilin (human, UniProt Q99523 78-830); test: flow cytometry, 293 cells expressing recombinant human Sortilin, 10 ug/ml antibody
T1 construct: also called hSort; SORT1
Procedure: (§1) Cells were harvested, plated at 10⁵/ml in a 96 well plate, washed, and incubated in 100 μl PBS containing 10 μg/ml Mab and 2% FBS for 1 hour in ice. Cells were then washed twice and incubated in 100 μl PBS+2% FBS containing 5 μg/ml PE-conjugated anti-human secondary antibody for 30 minutes in ice. Cells were washed twice in cold PBS and data was acquired on a BD FACS Canto. Data analysis and calculation of MFI values was performed with FlowJo (TreeStar) software version 10.0.7.

[2] = biological target: T2, recombinant mouse Sortilin (mouse, UniProt Q6PHU5 74-825); test: flow cytometry, 293 cells expressing recombinant mouse Sortilin, 10 ug/ml antibody
T2 construct: also called mSort
Procedure: as §1

human Sortilin = human Sortilin (human, UniProt Q99523 78-830); test: cell-based or functional assay

Row | Binder | MFI [1] | MFI [2] | Percent reduction of Sortilin levels in U251 cells (human Sortilin) | Fold increase in Progranulin levels in U251 cells (human Sortilin)
1 | B1 | 9480 MFI | 21400 MFI | – | –
2 | B2 | – | – | 37.4% | –
3 | B3 | 7930 MFI | – | – | –
4 | B4 | – | – | 37.3% | –
5 | B5 | 8430 MFI | 22400 MFI | – | –
6 | B6 | 8010 MFI | 16500 MFI | – | –
7 | B7 | 6280 MFI | – | – | –
8 | B8 | – | – | 20.3% | –
9 | B9 | 8070 MFI | 17900 MFI | – | –
10 | B10 | – | – | 22.1% | –
11 | B11 | – | – | 59.5% | 2.24 fold
12 | B12 | – | – | 12% | –
13 | B13 | 9760 MFI | 18800 MFI | – | –
14 | B14 | – | – | 48.1% | –
15 | B15 | 7480 MFI | 21800 MFI | – | –
16 | B16 | 8740 MFI | 17600 MFI | – | –
17 | B17 | – | – | 23% | –
18 | B18 | 8140 MFI | 11900 MFI | – | –
19 | B19 | 7770 MFI | 15100 MFI | – | –
20 | B20 | 10300 MFI | 22200 MFI | – | –
21 | B21 | 11100 MFI | 25600 MFI | – | –
22 | B22 | 9120 MFI | 15700 MFI | – | –
23 | B23 | 7410 MFI | 2630 MFI | – | –
24 | B24 | 12200 MFI | 21900 MFI | – | –
25 | B25 | 8660 MFI | 19400 MFI | – | –

— US20220251219A1 (published 2022)
